According to a protein production outcome set (Wang et al. 2014):

Test: label from the status in PepcDB records

## ILQLTSDTLILVDKNGTCLDIDPHSDLWFLQEDRLLGKNLFNLLPDHTFQKLLPDFRRVTQQGITVNRNYRLPLEGGETYYFKCIMQPYDGDKVLCQYRDIT
  protein production: failed

## MSLKIRDAYTIVTCPGRNFVTLKIVTESGTHGIGDATLNGREMAVAAYLDEHVVPALIGRDAGRIEDTWQYLYRGAYWRRGPVTMTAIAAVDMALWDIKAKAAGMPLYQLLGGKSRERVMTYAHCTGQTIEDCLGEVARHVELGYRAVRVQSGVPGIETTYGVAKTPGERYEPADSSLPAEHVWSTEKYLNHAPKLFAAVRERFGDDLHVLHDVHHRLTPIEAARLGKAVEPYHLFWLEDCVPAENQESLRLIREHTTTPLAIGEVFNSIHDCRELIQNQWIDYIRMPLTHGGGITAMRRVADLASLYHVRTGFHGPTDLSPVCLGAAIHFDTWVPNFGIQEHMPHTDETDAVFPHDYRFEDGHFLAGESPGHGVDIDEELAAKYPYERASLPVNRLEDGTLWHWEGHHHHHH
  protein production: not failed

## MTIAVDFDGTIVEHRYPRIGEEIPFAVETLKLLQQEKHRLILWSVREGELLDEAIEWCRARGLEFYAANKDYPEEERDHQGFSRKLKADLFIDDRNVGGIPDWGIIYEMIKEKKTFADIYSQQREENTSQKKKRKWLPF
  protein production: not failed

## MDNWQDITDDRLVRPIHPGEVIADILDDLDINTANFAEILGVSNQTIQEVINGQRSITVDIAIRLGKALGNGPRLWLNLQQKVDLWYALQSHKEEYEQVMTLV
  protein production: not failed

## MPVFRRHASQNCASIPPMMLFKRPDTETLYFALVNKDPAYEGVAYVCVTSTKIFCRFTCTARKPKIENCRFRETITECLEAGFRPCKRCKPMLSYGTPDGTVTALLTALENEPARRWREEDVVALGHDPSTVRRSFKRRFGMSFLEIARLRRVGDAAESLASGEAVIGAQIDAGYESGSGFRSAINQLFGTSPAAMKGRGFLKGDWIDTPIGPMLAVADDHALHLLEFADRPALPAELKRLKARTGADMVLGRTAVTGQIAAELAAYFAGRSGSFETRLAGHGTPFERDVWRNLREIPAGEIVSYSSLATAMERPTAVRAVARANGANQLAIVVPCHRVLGADGSLTGYGGGLWRKKWLIEHERRMARGQMLGMPLASLEHHHHHH
  protein production: failed

## MTHKVAFSFADGKTLFFPVKANEILLDAALRNGIKIPLDCREGVCGTCQGRCESGQYSQDYVDEEALSPQDLEQRKMLTCQTRVQSDAAFYFDFDSSLCHSADPVQLQGSVIDVRQVSESTAILHLDLGGHQAPLDFLPGQYARLSIPGTGTSRAYSFANRPAADNQLQFLIRLLPDGVMSNYIRERCLVGDTLQLEAPLGAFYLRQISRPLILVAGGTGLSALLAMLEQIVEQGCQQPVHLYYGVRHSRDLCELERIQAHGERLADFRFTPVISDANPDWPGKRGYISEHFDSSELRDQDTDMYVCGPPPMVDSIRIWLQEQQLNRVQLYYERFTESNI
  protein production: failed

## MAEIIDKTLNMLVTGQRARVIQIKGKGNSRKRLLEMGMVPGTVLSVTKKAPLGDPVDFKLKGYNLSLRKQEAEMIVVEPLEG
  protein production: failed

## MSDELSDRVAQYLRWQVSDKVALLAQRYPDDTSLTLDWTDLARWDPTLAEDILDAPDSMLEYVERGIRDTPLPVDTSLGQATPRFENLPESHTTAPGEFSPSDRRGQLLALEGQVAKRTQVQPRLVEAAFECQRCGTLTRIPFEPGQFIEPFECVGCETKGPFRINPDQSRYEDYQKLLLENPSSAALGGDTSDIIAHLQGDLAGHGAIANCQDVVLVGELQFRGGGPIPEPQVVVNSVQAAGQTYQDAEFTADQRDLFERLRERPESFDVDIEDPSTADVLMAAAAPKFVSGSHPRDRQVVRGLVLQLVSASTFDGPDGSHYRGDVHVLLPGDPGTGKSVLAKWAAAVAPRSAFASGERVSGPGLTAAAVKDDFSDGGFSIEPGVLVRAHEGIAVVDELDKAGDDAIEKMHSALADQILPLSLGGQSMTLPAECGLLGVCNPLGGHFAGDESLVDALGINSPLLSRFDLIMQMRSKQDREHVRELAESMIRTWSASLKDATGQALDTADADTIDPVLSMDQYRAVLLRARQLHPTPANDRVIEALAAWFEEQKMALPERYRDALADADGQYHGPPVPVTARKLGAARRVAQAAARANLREEITMADVEVAKELVSRSLADLDIPIVHNAGLGGGDVNRREPADLSGVS
  protein production: failed

## FGLEGLPKHLKRIPLECLVEAKSYLRQYPQVDSERIGIYGRSKGAELVLAEESIFNDVQCLVLNSPSDVVDEGIIGKWNSHTSSWTHLQKELPYQKFRFRDYLFSKLFRKDFPKDCSARIDIGQMHSPILLLESTVDEIWDASSAIDDIVSHYKGHYITFKKYHETGHMLTVAYQPNHRYRKDWHLLMKESEDSWLATIHFFDRHLK
  protein production: failed

## MSPISEPSRLDPVRPGQLLMIDLPGPELDKDTAAYLREHGIGAVCLFGKNVESAEQLRRLCADLREVMGEHALIAIDHEGGAITRPEFWPFAPSAMSLGAADDQQLTEDVNAALARQLRSVGINWNFTPVLDINVNPANPVIGDRAYGSDAARVTRHGRAALAGHTREGVAPCAKHFPGHGDTHQDSHLALPRVSKSRAELDAGELAPFRALLPETPAIMTAHIVYDALDAEHPATLSPRILTGLLREEWGYDGVIVTDSMGMQAIDANYGRGEAAVRALRAGADLVMALGRREVQQATLAAVAEYVPENQAAVATKRERLRALARRFPAQADETLDPQADAALLADA
  protein production: not failed

## MNVVVTGGRGSSGRWIVDRLVGPHDVTVLDRRLPDDEGHPAVEYQALDLTDAGGVFDTLTAIDPDAVVHWAAIPVAGNHPGVDLFQNNTLAAHNVLSAAGRVGADVVQGSSDGAYGFFFAEETPVPDELPITEKHARRPEDDYGLSKVVTEEIGKTIARRDGISVASIRPSWIQIPGEYPCRSEDYVDDLAAGAGNYWSYVDVRDVADLVEAALTADVAGHETFNCVGPDNALGRPLVELMRDHYGRVPDDCTVEGDAAAYSTAKATERLGWEPTRSWREAADVDVDVPTV
  protein production: failed

## APTSSNDTGKTVVAVTACPTGIAHTYMAAEKLQETANKLGVRIKVETNGSRGVENRLTDKEIAEADGVIIAADVQVDMPRFDGKHLIAKPVAAGIHKPEELIKEAISGNAPVYKAESGSEATEST
  protein production: not failed

## MDQSTRARTRTAFAIDAVGQGAKAAVKAVWWTATGGLARSLTRPTEGPQARRFTPAAPPPVPGSLRRAYLEAFEKDARDVAAGLYPAIEDGPIRPSAALREAVDFLVDAFEVDQRRRRGDGAEVRNAADPSVYPNYYRQNFHYQSGGWFTAESAGRYDAQVEALFSGTAGAMRRRGLSLLARHWRGRDHRDAKILDVACGSGAFLKDLSAAFPRAALAGLDLSEAYLAKARKRTAVGGVKAKAETLPFGDATLDAVTCVYLFHELPPRVRPVVAASLARVLKPGGVLVLVDSVQPVDTPDLARLLEAFPVYFHEPYYSSYAETNLEALFAEAGLRLLDQDCAFLTKAMLFVKPGG
  protein production: failed

## MELKTAADSNFSESEESPETKGIRILEGDPKKAIIKLAVPMIVAMSVQTLYQLIDTFWVSGLGADALAAMGFVFPFYFISMALSNGLGIGGGAAISRKIGARDKAGADNVAVHTIIIMMLLVLIFTIPFYVFAPHIFSLVGAGKTTDLAVAYARVIFLGSIVIFFTNVANSILRSEGDSKRAMYAMVLGAALNIVIDPIFIYTFKMGIAGAAWATLLSLAVSSAMMLNWLFFKKDTFVSFDFKDFSFEKSIINDIFRIAVPASAQQLSMSLSMLVLNLIIVNVSSTDGVAVYSTGWRVATIAIAPLVGIATAVVSVSGAAFGAKDFEKAKTAHTYAVKVGLLIEGGVAAFTFIFAPQIAAVFTQTEEAAHIAPDLIQFLRIICIFYPTVSLGMLSTSLFQGAGKGFSALTANLLRTIVFTPLFAAFFAFNLNMGQVGAWWGIVAGNAIGAGVVYVWVKLYLSTILKTGPLHKPFEQGI
  protein production: failed

## KEKDTIAAEHKQEASVLLNLHRNKINYLIGETMARMTSLSIAIDRPVDIKKMQSILEKTFDSEPRFSGLYFLNAKGDVTASTTELKTKVNLADRSFFIKAKETKKTVISDSYSSRITGQPIFTICVPVLDSKRNVTDYLVAAIQIDYLKNLINLLSPDVYIEVVNQDGKMIFASGQASHAEDQKPVSGYLDDISWNMKVYPNPVTIEEL
  protein production: not failed

## MPSLGCCYIMGGTVLWAIAAELFFESMNLITWLADFSRGHCVGICAALVPSILLWTTICAVLIALGQPRWSVNTAYVATLTVCGVMVLHVASWFSIGVITPVTFILLGLSLSCGSLATLFWRYSSQWQKFCHSGLRETIKAKWPQTLKI
  protein production: failed

## RLNFLDTLGRAVTEATDPDQIMAITTRMLVEHLGLSSCAYAVMDPDEDGFTICGDAVTPGSPRLVGHYHLHDFGRLAVSRLRSGLALVINDNLRELAADEAATYQAIGITATICMPLIKGGRLTALMAIHDRVPRAWTDYEQTLISEVTERCWAHIQRAQAHAEVREAMAALEALNTTLE
  protein production: failed

## EVILGDGIFPLTALAVGKDDRAFAVIRTAGGQAPHPDVDFPELSSTGLLLSSLKPADRALLPEGTPDREVSIDLGGQMMPYEWRILTDGQSSSATVQEGQRLRMVMRNRTMMPHPMHIHGHTWALPGSGGLRKDTVLLRHGETMIADLIADNPGEWAFHCHNAYHMETGMLSSLRYE
  protein production: failed

## LTECLSQGEDIRLSKILIFAGTTEGRKLSEHLCKRGIEHTVCVATEYGEIVLHENPFAHVHMGRMDSEGMRSFFAEQKCKLIVDATHPYAAIVTENIKQAVYAFNEAHAVTDNQADSSISENIEYVRLKRDTDISADYDNIRYFEDNEACAKALNNTDGNILLTTGSKELSVYCKTSDVRERLYVRVLPGLESISLCMHNDITGKHILALQGPFSTQLNEALIDQYDIRCLVTKKSGAAGGFIEKIAAAKNKNIPVYIVGQSVQDDGMSFEAVCEYIDSKYNKLHIMLAGIGMGNDACMTKAVSDAIESADIILGASRMIEKYSAKIDKKPYYLAEQIIPYLYEICADTAKISNVLILFSGDTGFYSGSRKLYLAIKNEISEGKLNADVSILPGISSVSYMAAAVGETYNDAYICSIHGVKLSNITSRISHHAKTFMLMSGVRDVNMLGHLLSSDERYGLQKCSVTVGYQLSYPDENISQLSPQECTKLKREGLYICMIKNPNPVAKNVTPQLSDAAFIREKVPMTKEEIRHVSICKLHLKSDSVLYDVGSGTGSIAVEAASLSDDMEVYAIEQKENAVQLITKNKEKHGLENIHVINAKAPDGMENLPVPTHAFIGGSSGNLKEIIEALKAKNPHIRIVINAISMETICEIKEIMSAYNVKNEDIVQLQVSRSKQIGHYHLMQAENPVWICSFEF
  protein production: failed

## MESIEQQLTELRTTLRHHEYLYHVMDAPEIPDAEYDRLMRELRELETKHPELITPDSPTQRVGAAPLAAFSQIRHEVPMLSLDNVFDEESFLAFNKRVQDRLKNNEKVTWCCELKLDGLAVSILYENGVLVSAATRGDGTTGEDITSNVRTIRAIPLKLHGENIPARLEVRGEVFLPQAGFEKINEDARRTGGKVFANPRNAAAGSLRQLDPRITAKRPLTFFCYGVGVLEGGELPDTHLGRLLQFKKWGLPVSDRVTLCESAEEVLAFYHKVEEDRPTLGFDIDGVVIKVNSLAQQEQLGFVARAPRWAVAFKFPAQEQMTFVRDVEFQVGRTGAITPVARLEPVHVAGVLVSNATLHNADEIERLGLRIGDKVVIRRAGDVIPQVVNVVLSERPEDTREVVFPTHCPVCGSDVERVEGEAVARCTGGLICGAQRKESLKHFVSRRAMDVDGMGDKIIDQLVEKEYVHTPADLFKLTAGKLTGLERMGPKSAQNVVNALEKAKETTFARFLYALGIREVGEATAAGLAAYFGTLEALEAASIEELQKVPDVGIVVASHVHNFFAEESNRNVISELLAEGVHWPAPIVINAEEIDSPFAGKTVVLTGSLSQMSRDDAKARLVELGAKVAGSVSKKTDLVIAGEAAGSKLAKAQELGIEVIDEAEMLRLLGS
  protein production: not failed

## MKRTHLASFSNRDKTQEEEGEDGNGDNRVIMNHYKNYEAGLIPWPPKNYTCSFCRREFRSAQALGGHMNVHRRDRAKLRQIPSWLFEPHHHTPIANPNPNFSSSSSSSTTTAHLEPSLTNQRSKTTPFPSARFDLLDSTTSYGGLMMDREKNKSNVCSREIKKSAIDACHSVRCEISRGDLMNKKDDQVMGLELGMSLRNPNQVLDLELRLGYL
  protein production: not failed
